The values that follow come from US20230167458A1, “FORSKOLIN-INDUCIBLE PROMOTERS AND HYPOXIA-INDUCIBLE PROMOTERS” (ASKLEPIOS BIOPHARMACEUTICAL, INC., priority 2020, published 2023).

The subject of one data set is CHO-GSK1SV. Put plainly: Luciferase expression in normoxia vs 24 h hypoxia, transiently transfected CHO-GS suspension cells. Conditions: for relative rank of promoter strength: transient CHO-GSK1SV, hypoxia; for inducibility after 24 hours in hypoxia (rank) / luciferase activity in normoxia: transient CHO_GS. The class given is cell-based, chinese hamster. The procedure: 40 ml of cells were grown in a 250 ml vented Erlenmeyer flask (Sigma-Aldrich CLS431144) at 37° C., 20% O2, 8% CO2 with agitation at 100 rpm. Cells were seeded as at 300,000 cells/ml.
(§1) One day before transfection, the cells were counted using a haemocytometer and split to 500,000 cells/ml.
On the day of transfection, the cells are seeded to 1,000,000 cells/ml in 500 μl of appropriate medium (Thermofisher, CD-CHO 10743029) in a 24 well plate. […] of DNA per well was then added to 10 μl of OptiMem medium (Thermofisher; 11058021) and incubated for 5 minutes at room temperature.
Concurrently, 0.625 μl of Freestyle Max reagent (Thermofisher, 16447100) was made up to 10 μl by addition of OptiMem and incubated for 5 minutes at room temperature. After this incubation, both mixes were added to the same tube and incubated at room temperature for 25-30 minutes. The DNA/Max reagent mix (20 μl/well) was then added directly to the cells and the cells incubated at 37 C, 8% CO2 with agitation at 100 rpm.
The transfected DNA was one of the vectors where the promoter constructs (RTV-015, HYBT, RTV-016, HV3C) or a control promoter (CMV-IE) were used to drive luciferase expression and β-galactosidase containing pcDNA6 plasmid. The β-galactosidase containing plasmid was used as internal control for transfection efficiency (Thermofisher, V22020).
After transfection the cells were incubated for 24 hrs in normoxic conditions (20% oxygen). Induction of the promoters was assessed by using luciferase activity after 24 hrs in normoxia or hypoxia (5% oxygen, 10% carbon dioxide and 85% nitrogen). Hypoxia was achieved by gas displacement in a sealed hypoxia chamber. Luciferase activity was measured as described above.

The subject of another data set is HEK293-F. Briefly: Luciferase time course under hypoxia, transiently transfected HEK293-F. To be noted: hypoxia 5% oxygen, printed order RTV-015, SYNP-HYP-001, RTV-016, HYBT, HV3C. The class given is cell-based, human. Here is the method:
The constructs were initially used to drive luciferase expression in HEK293-F and HEK293-T in hypoxia.
40 ml of cells were grown in a 250 ml vented Erlenmeyer flask (Sigma-Aldrich CLS431144) at 37° C., 20% O2, 8% CO2 with agitation at 100 rpm. Cells were seeded as described in the manufacturer's instructions (300,000 cells/ml). HEK293-F were obtained from Thermofisher, R79007.
as §1
On the day of transfection, the cells are seeded to 1,000,000 cells/ml in 500 μl of appropriate medium (Freestyle 293 expression medium, 12338002) in a 24 well plate. […] of DNA per well was then added to 10 μl of OptiMem medium (Thermofisher; 11058021) and incubated for 5 minutes at room temperature.
Concurrently, 0.625 μl of Max reagent (Thermofisher, 16447100) was made up to 10 μl by addition of OptiMem and incubated for 5 minutes at room temperature. After this incubation, both mixes were added to the same tube and incubated at room temperature for 25-30 minutes. […]
After transfection the cells were incubated for 24 hrs in normoxia conditions (20% oxygen) before being switched to a gas mix of 5% oxygen, 10% carbon dioxide and 85% nitrogen (hypoxia). […] Induction of the promoters was assessed by using luciferase activity after 3, 5 and 24 hrs in hypoxia.
Luciferase activity was measured using LARII (Dual Luciferase Reporter 1000 assay system, Promega, E1980).
Media was removed from the cells at the respective time point (0, 3, 5, 24 hrs after induction). […] 10 μl of supernatant was pipetted into white 96-well plate and luminescence measured by addition of 50 μl of LARII substrate.
β-galactosidase activity was measured as per manufacturer's instructions (Mammalian βGalactosidase Assay Kit, 75707/75710, Thermo Scientific) using 25 μl of lysate. […] The mixture was incubated at 37° C. for 30 min and absorbance measured at 405 nm.
Luciferase readouts were normalised to β-galactosidase to produce normalised relative luminometer units (RLUs).

B1: HV3C: synthetic hypoxia-inducible promoter, SEQ ID NO: 85/87; 4 HRE3 elements and CMV minimal promoter (nucleic acid)
DNA: GATCTTTGTATTTAATTAAGACCTTGAGTACGTGCGTCTCTGCACGTATGGCGATTAAGACCTTGAGTACGTGCGTCTCTGCACGTATGGCGATTAAGACCTTGAGTACGTGCGTCTCTGCACGTATGGCGATTAAGACCTTGAGTACGTGCGTCTCTGCACGTATGGCGATTAATCCATATGCAGGTCTATATAAGCAGAGCTCGTTTAGTGAACCGTCAGATCGCCTAGATACGCCATCCACGCTGTTTTGACCTCCATAGAAGATCGCCACC
modifications: Synp-HV3C
notes: 4 HRE3 elements and CMV minimal promoter
With B1, in the data set with CHO-GSK1SV, the “relative rank of promoter strength” value is “strongest”, the “inducibility after 24 hours in hypoxia (rank)” value is given as “highest” and the “luciferase activity in normoxia” value is given as “almost no luciferase activity”. In the data set with HEK293-F, the “relative rank of promoter activity” value was “strongest”.

B2: RTV-015: synthetic hypoxia-inducible promoter, SEQ ID NO: 81; 5 HRE1 elements spaced by 40 bp and minimal promoter MP1 (nucleic acid)
DNA: ACGTGCGATGATGCGTAGCTAGTAGTGATGATGCGTAGCTAGTAGTACGTGCGATGATGCGTAGCTAGTAGTGATGATGCGTAGCTAGTAGTACGTGCGATGATGCGTAGCTAGTAGTGATGATGCGTAGCTAGTAGTACGTGCGATGATGCGTAGCTAGTAGTGATGATGCGTAGCTAGTAGTACGTGCTTGGTACCATCCGGGCCGGCCGCTTAAGCGACGCCTATAAAAAATAGGTTGCATGCTAGGCCTAGCGCTGCCAGTCCATCTTCGCTAGCCTGTGCTGCGTCAGTCCAGCGCTGCGCTGCGTAACGGCCGCC
modifications: Synp-RTV-015
notes: 5 HRE1 elements spaced by 40 bp and minimal promoter MP1
As for B2, in the data set on CHO-GSK1SV, the “relative rank of promoter strength” value is on record as “weakest”, the “inducibility after 24 hours in hypoxia (rank)” value was “lowest” and the “luciferase activity in normoxia” value is listed as “almost no luciferase activity”. Moreover, the “relative rank of promoter activity” value in the data set on HEK293-F is on record as “weakest”.
